In one series the target is canine PD-L1 (canine). As to the kind of experiment: competition ELISA: biotinylated canine PD-L1 pre-incubated with the inhibitor, then bound to coated canine PD-1, streptavidin-HRP. For orientation: In an ELISA, binding on a coated surface is turned into a signal by an enzyme label.
For the next series, the target named is papain (UniProt P00784).
For series [1], the target named is T1, human Stefin A (wild type human Cystatin A).
T1 chain: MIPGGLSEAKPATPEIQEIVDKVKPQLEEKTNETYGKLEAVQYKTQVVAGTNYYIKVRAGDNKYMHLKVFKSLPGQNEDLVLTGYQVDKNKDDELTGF

As for canine PD-1 (receptor), the IC50 (read off the curve) with canine PD-L1 (canine) was 20 nM.
In turn, “human Stefin A (wild type human Cystatin A) (from UniProt P01040 1-98)” came in with an IC50 (read off the curve) with papain of 1 nM.

B1: papain (protein)
chain: IPEYVDWRQKGAVTPVKNQGSCGSCWAFSAVVTIEGIIKIRTGNLNEYSEQELLDCDRRSYGCNGGYPWSALQLVAQYGIHYRNTYPYEGVQRYCRSREKGPYAAKTDGVRQVQPYNEGALLYSIANQPVSVVLEAAGKDFQLYRGGIFVGPCGNKVDHAVAAVGYGPNYILIKNSWGTGWGENGYIRIKRGTGNSYGVCGLYTSSFYPVKN
Consider B1, for which, in series [1], the “papain activity assay: fluorescence (excitation 380 nm, emission 460 nm) from the substrate N-Carbobenzyloxy-Phe-Arg-7-amido-4-methylcoumarin” value is “hSteA is a potent inhibitor of papain”.

The values above are taken from patent publication US20200181239A1.
